According to patent US20200123547, “NUCLEIC ACID-BASED ASSEMBLY AND USES THEREOF” (Rheinische Friedrich-Wilhelms-Universität Bonn, published 2020):
Substitutions are numbered along the chain they refer to.

How the values were obtained:
[1] = target: T1, cMet (HGFR) ectodomain, cMet-Fc (human, UniProt P08581 P08581:25-932); assay: competition; filter retention vs 32P-trCLN3; ~50 nM cMet; 1x PBS pH 7.4, 2 mM MgCl2, tRNA, BSA, 37 C; conditions: tags: Fc domain of human IgG1 fusion, R&D Systems; chain copies: 2; G4, micellar nanoconstruct above CMC 300-350 nM
T1 sequence (P08581 25-932, one chain of several): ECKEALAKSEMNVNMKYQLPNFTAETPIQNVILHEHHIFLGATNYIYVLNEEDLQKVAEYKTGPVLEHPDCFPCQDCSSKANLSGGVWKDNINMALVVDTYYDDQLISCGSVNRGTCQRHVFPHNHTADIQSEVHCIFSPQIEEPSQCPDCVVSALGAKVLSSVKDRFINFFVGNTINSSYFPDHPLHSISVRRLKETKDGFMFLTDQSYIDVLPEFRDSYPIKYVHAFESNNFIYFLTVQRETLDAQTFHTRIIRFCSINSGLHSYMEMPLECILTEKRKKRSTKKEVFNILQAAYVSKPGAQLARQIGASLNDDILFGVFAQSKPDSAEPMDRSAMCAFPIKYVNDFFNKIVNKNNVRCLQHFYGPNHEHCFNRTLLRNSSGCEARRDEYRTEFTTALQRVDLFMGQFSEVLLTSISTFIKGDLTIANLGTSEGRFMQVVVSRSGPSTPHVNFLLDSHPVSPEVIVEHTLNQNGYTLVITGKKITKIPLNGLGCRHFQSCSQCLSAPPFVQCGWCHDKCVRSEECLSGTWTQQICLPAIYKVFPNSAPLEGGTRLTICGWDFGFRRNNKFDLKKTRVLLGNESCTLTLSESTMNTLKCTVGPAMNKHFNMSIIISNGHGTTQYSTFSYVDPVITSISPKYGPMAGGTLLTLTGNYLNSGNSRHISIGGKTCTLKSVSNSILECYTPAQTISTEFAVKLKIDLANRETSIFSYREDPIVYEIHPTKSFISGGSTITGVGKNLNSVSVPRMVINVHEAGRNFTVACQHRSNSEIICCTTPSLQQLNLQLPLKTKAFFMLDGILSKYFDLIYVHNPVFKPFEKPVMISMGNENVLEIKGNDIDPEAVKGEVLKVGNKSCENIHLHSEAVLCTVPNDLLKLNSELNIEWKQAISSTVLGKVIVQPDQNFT
Description: (§1) To determine the affinity, ˜25 fmol of radiolabeled aptamer was incubated with a cMet concentration of ˜50 nM together with varying concentrations (1 μM-25 μM) of unlabeled competitor for 30 min at 37° C. in 25 μL of buffer containing 0.1 mg/ml E.coli tRNA (Roche, Mannheim, Germany), 0.25 mg/ml BSA, 2 mM MgCl₂ in 1× PBS, pH 7.4. The aptamer-protein complexes were captured on a Protran nitrocellulose membrane (GE Healthcare) that was pre-incubated in 0.4 M KOH for 10 minutes, followed by washing with 1× PBS containing 2 mM MgCl₂, pH 7.4. After addition of the aptamer-protein solution, the filter was washed 4 times with lx PBS containing 2 mM MgCl₂ using vacuum filtration. Residual radioactivity due to cMet bound labeled aptamers was quantified using Fujifilm Fla-3000 Phosphorlmager and AIDA software. The curves were fitted with GraphPadPrism 3.02 plotting non-linear regression curve and the IC₅₀ values have been calculated assuming a competition for single binding site.
(§2) To test the influence of lipid tails on aptamer binding, a competitive filter-binding assay was carried out using the methodology above. Varying concentrations of unlabeled 5′-lipid functionalized aptamer 3 and its two-point mutant variant trCLN3.mut-L4 (see Example 2.3) competed with a constant amount of ³²P-radio-labeled native trCLN3 aptamer in binding to cMet.

[2] = target: T1, cMet (HGFR) ectodomain, cMet-Fc; assay: competition; no competition with 32P-trCLN3 within tested concentration range; conditions: tags: Fc domain of human IgG1 fusion, R&D Systems; chain copies: 2
Description: as §1, §2

[3] = target: T1, cMet (HGFR) ectodomain, cMet-Fc; assay: filter; almost no binding in filter retention assay; conditions: tags: Fc domain of human IgG1 fusion, R&D Systems; chain copies: 2

B1: trCLN3-L4 (structured_DNA)
DNA: TGGATGGTAGCTCGGTCGGGGTGGGTGGGTTGGCAAGTCT
modifications: four 5-(1-dodecynyl)-2'-deoxyuridine (C12 lipid) residues at 5' end
[1]
  IC50: 43 nM

B2: trCLN3.mut-L4 (ssDNA)
DNA: B1 DNA with G7A, G25A
modifications: four 5-(1-dodecynyl)-2'-deoxyuridine (C12 lipid) residues at 5' end
[2]
  binding result: no binding

B3: trCLN3.mut (ssDNA)
DNA: B1 DNA with G7A, G25A
[3]
  binding result: no binding
